Results: patent publication US7618800B2, “Glycerol kinase, which has high resistance against preservative” (Toyo Boseki Kabushiki Kaisha, priority 2002, dated 2009)

Tests used:
[1] = Optimal pH (assay method 3); type: biochemical; settings: 50 mM buffers, 37° C.
Protocol: Glycerol kinase activity was assayed after reaction in each 50 mM buffer at 37° C. for 5 minutes. […] Black circles express the reaction in the presence of 50 mM MES buffer; black squares express the reaction in the presence of 50 mM HEPES buffer; black diamonds express the reaction in the presence of TAPS buffer; black triangles express the reaction in the presence of 50 mM CHES buffer; and white circles express the reaction in the presence of 50 mM glycine-NaOH.
After dividing 3 ml of an active reaction solution (50 mM buffer at each pH, containing 4 mM ATP and 2 mM magnesium chloride) in a test tube, 0.1 ml of a glycerol kinase solution after dilution to an appropriate concentration (about 1 U/ml of the activity measured according to the assay method 1) was added thereto and mixed thoroughly. […] After adding 0.15 ml of the reaction-terminated solution to 3 ml of a chromogenic solution (0.2 M HEPES buffer of pH 7.9 containing 0.01% 4-aminoantipyrin, 0.02% phenol, 5 U/ml peroxidase and 16 U/ml glycerol-3-phosphoric acid oxidase) and mixing, reaction at 37° C. for about 5 minutes was carried out to measure the absorbance at 500 nm. Then, the absorbance of 1 mM L-glycerol-3-phosphoric acid solution was simultaneously measured. The amount of L-glycerol-3-phosphoric acid produced via each enzyme reaction was determined. […]

[2] = Km value for ATP (Lineweaver-Burk, assay method 1); type: biochemical; settings: ATP concentration changed
Protocol: (§1) Generally, the activity was assayed by the method. Using glycerol as substrate, the enzyme activity was assayed on the basis of the amount of produced glycerol-3-phosphoric acid. By adding 0.1 M HEPES buffer of pH 7.9 to 0.2 ml of 0.5% 4-aminoantipyrine solution, 0.2 ml of 1.5% phenol solution, 200 U of the oxidase of glycerol-3-phosphoric acid, 80 U of peroxidase, and 48.4 mg of ATP, a total volume is adjusted to be 21 ml. The resulting solution was used as the stock solution for the following assays. To 3 ml of the assay stock solution, 50 μl of 0.3 M glycerol solution and 100 μl of the enzyme solution were added and mixed. Each reaction was assayed by recording the absorbance at 500 nm for 3 minutes with a spectrophotometer which is controlled to be 37° C., and calculating the change of the absorbance per minute on the initial linear part (triangle OD test). A blank test was conducted by adding 100 μl of a diluted enzyme solution (20 mM potassium phosphate buffer of pH 7.5 containing 0.2% bovine serum albumin) instead of the enzyme solution and carrying out the same procedures as described above and calculating the change of the absorbance per minute (triangle OD blank). […]

[3] = Glycerol kinase activity by rate assay (relative activity of purified enzyme); type: biochemical; settings: protein approximated from absorbance at 280 nm
Protocol: Generally, the activity was assayed by the method. Using glycerol as substrate, the enzyme activity was assayed on the basis of the amount of produced glycerol-3-phosphoric acid. By adding 0.1 M HEPES buffer of pH 7.9 to 0.2 ml of 0.5% 4-aminoantipyrine solution, 0.2 ml of 1.5% phenol solution, 200 U of the oxidase of glycerol-3-phosphoric acid, 80 U of peroxidase, and 48.4 mg of ATP, a total volume is adjusted to be 21 ml. The resulting solution was used as the stock solution for the following assays. To 3 ml of the assay stock solution, 50 μl of 0.3 M glycerol solution and 100 μl of the enzyme solution were added and mixed. Each reaction was assayed by recording the absorbance at 500 nm for 3 minutes with a spectrophotometer which is controlled to be 37° C., and calculating the change of the absorbance per minute on the initial linear part (triangle OD test). A blank test was conducted by adding 100 μl of a diluted enzyme solution (20 mM potassium phosphate buffer of pH 7.5 containing 0.2% bovine serum albumin) instead of the enzyme solution and carrying out the same procedures as described above and calculating the change of the absorbance per minute (triangle OD blank).
Based on the change of the absorbance as obtained, the enzyme activity of glycerol kinase was calculated according to the following formula. […]

[4] = pH stability of glycerol kinase; type: physicochemical; settings: 20 hr treatment at 25° C.
Protocol: Glycerol kinase was dissolved in each of 50 mM buffers to become about 10 U/ml and stored at 25° C. for 20 hours. Subsequently, glycerol kinase activity was assayed to determine remaining activity. […] Black circles express the reaction in the presence of acetate buffer; black squares express the reaction in the presence of potassium phosphate buffer; black diamonds express the reaction in the presence of CHES buffer; black triangles express the reaction in the presence of CAPS buffer.

[5] = Km value for glycerol (Lineweaver-Burk, assay method 1); type: biochemical; settings: glycerol concentration changed
Protocol: as §1

[6] = Resistance against preservative (remaining activity ratio); type: physicochemical
Protocol: (§2) After dissolving glycerol kinase from each origin in 50 mM potassium phosphate buffer of pH 7.5 to become about 5 U/ml, each preservative was added at a concentration shown in the figure and stored at 4° C. for one week, to assay the remaining activity. […] The remaining activity ratio of the enzyme from each origin is shown in the order from the top as the activity when 0.3 mM ProClin® 300 is present, 0.8 nM ProClin® 150 is present, 500 mg/L IZU is present, 100 mg/L MIT is present and no preservative is added.
as §2, with “25°” for “4°”, “week” for “week,”, “mM” for “nM”
The resistance against preservative in the present invention can be evaluated on the basis of the remaining activity ratio when about 5 U/mL glycerol kinase coexists with preservative at 25° C. for one week in 50 mM potassium phosphate buffer of pH 7.5.
The Km values of glycerol and ATP were calculated according to the Lineweaver-Burk equation according to the method described in the section “Method for assaying glycerol kinase activity” <method 1>, wherein the concentration of glycerol or ATP was changed to assay the glycerol kinase activity at each substrate concentration. • (8) Relative activity: About 41.2 U/mg • (9) Resistance against the presence of preservative: Remaining activity ratio in coexistence with 100 mg/L MIT in 50 mM potassium phosphate buffer of pH 7.5 is shown in FIGS. 5 and 6. The activity was assayed according to the method 1.

[7] = Optimal temperature (assay method 2); type: biochemical; settings: reaction in 20 mM HEPES buffer, pH 7.9 for 5 minutes
Protocol: Glycerol kinase activity was assayed after reaction in […], pH 7.9 at each temperature for 5 minutes.
After dividing 3 ml of an active reaction solution (20 mM HEPES buffer of pH 7.9 containing 4 mM ATP and 2 mM magnesium chloride) in a test tube, 0.1 ml of a glycerol kinase solution after dilution to an appropriate concentration (about 1 U/ml of the activity measured according to the assay method 1) was added thereto and mixed thoroughly. Then, the reaction mixture is preliminarily heated at each temperature for about 3 minutes. Then, 0.05 ml of aqueous 0.3 M glycerol solution was added and mixed for initiating the reaction. After the reaction for exact 10 minutes, 1 ml of 1N hydrochloric acid was added to terminate the enzyme reaction. After adding 0.15 ml of the reaction-terminated solution to 3 ml of a chromogenic solution (0.2 M HEPES buffer of pH 7.9 containing 0.01% 4-aminoantipyrin, 0.02% phenol, 5 U/ml peroxidase and 16 U/ml glycerol-3-phosphoric acid oxidase) and mixing, reaction at 37° C. for about 5 minutes was carried out to measure the absorbance at 500 nm. Then, the absorbance of 1 mM L-glycerol-3-phosphoric acid solution was simultaneously measured. The amount of L-glycerol-3-phosphoric acid produced via each of the reactions was determined. […]

[8] = Thermal stability of glycerol kinase; type: physicochemical; settings: 50 mM potassium phosphate buffer, pH 7.5, 15-min treatment
Protocol: Glycerol kinase was dissolved in 50 mM potassium phosphate buffer of pH 7.5 to become about 10 U/ml and stored at each temperature for 15 minutes. Subsequently, glycerol kinase activity was assayed to determine the remaining activity.
After dissolving the glycerol kinase in 50 mM potassium phosphate buffer of pH 7.5 to become about 10 U/ml, glycerol kinases were stored at each temperature for 15 minutes to assay the remaining activity. […] Black circle expresses glycerol kinase of the present invention; black squares expresses glycerol kinase from Thermus fiavus.

B1: glycerol kinase of the present invention: Recombinant glycerol kinase (SEQ ID NO:1) of Cellulomonas sp. JCM2471 gene, expressed in E. coli KM1 (pCGK12) and purified (protein)
chain: MADYVLAIDQGTTSSRAIVFNHSGEIYSTGQLEHDQIFPRAGWVEHNPEQIWNNVREVVGLALTRGNLTHEDIAAVGITNQRETAVVWDKTTGKPVYNAIVWQDTRTQKIVDELGGDEGAEKYKSIVGLPLATYFSGPKIKWILDNVEGAREKAEKGDLLFGNTDTWVLWNMTGGTEGGVHVTDVTNASRTMLMDLDTLSWREDIAADMGIPLSMLPDIRSSSEVYGHGRPRGLVPGVPIAGILGDQQAATFGQACFEVGQAKNTYGTGNFLLLNTGTEKVMSKNGLLTTVCYKIGDAPAVYALEGSIAVTGSLVQWLRDNLGMFEDAPDVEWLAGKVQDNGGAYFVPAFSGLFAPYWRPDARGALVGLTRYVNRNHIARAALEATAFQSREVVDAMNADSGVDLTELRVDGGMVANELLMQFQADQLGVDVVRPKVAETTALGAAYAAGIAVGFWKGEQDVIDNWAEDKRWSPSMESGERERLYRNWKKAVTKTMEWVDEDVEQ
modifications: Cellulomonas sp. JCM2471
notes: JCM2471 gene, expressed in E. coli KM1 (pCGK12) and purified
[1]
  Optimal pH: about 10.0
[2]
  Km: ~111 µM
[3]
  Relative activity: about 41.2 U/mg protein
[4]
  pH stability (pH range with remaining activity of 90% or more): 6.0-10.0
[5]
  Km: ~6.9 µM
[6]; 100 mg/L MIT, 50 mM potassium phosphate buffer pH 7.5, storage at 4° C. for one week
  Remaining activity ratio: ~100%
[6]; 100 mg/L MIT, 50 mM potassium phosphate buffer pH 7.5, storage at 25° C. for one week
  Remaining activity ratio: about 92%
[6]; compared with glycerol kinase derived from Thermus flavus
  Stability in the coexistence of preservatives (in words): high stability in the coexistence of preservatives
[6]; storage at 25° C. for one week in coexistence with preservatives (sentence names none)
  Remaining activity ratio: ≥ 90%
[7]
  Optimal temperature: about 50 °C
[8]
  Thermal stability (temperature range with remaining activity of 90% or more): ≤ 45 °C
